# Experimental data published in IntAct's records for PubMed 32296183.
# B1: Catenin alpha-3 (Homo sapiens), Q9UI47-2 (parent)
# chain: MSAETPITLNIDPQDLQVQTFTVEKLLEPLIIQVTTLVNCPQNPSSRKKGRSKRASVLLASVEEATWNLLDKGEKIAQEATVLKDELTASLEEVRKESEALKVSAERFTDDPCFLPKREAVVQAARALLAAVTRLLILADMIDVMCLLQHVSAFQRTFESLKNVANKSDLQKTYQKLGKELENLDYLAFKRQQDLKSPNQRDEIAGARASLKENSPLLHSICSACLEHSDVASLKASKDTVCEEIQNALNVISNASQGIQNMTTPPEPQAATLGSALDELENLIVLNPLTVTEEEIRPSLEKRLEAIISGAALLADSSCTRDLHRERIIAECNAIRQALQDLLSEYMNNAGKKERSNTLNIALDNMCKKTRDLRRQLRKAIIDHVSDSFLDTTVPLLVLIEAAKNGREKEIKEYAAIFHEHTSRLVEVANLACSMSTNEDGIKIVKIAANHLETLCPQIINAALALAARPKSQAVKNTMEMYKRTWENHIHVLTEAVDDITSIDDFLAVSGMFLFF
# partner: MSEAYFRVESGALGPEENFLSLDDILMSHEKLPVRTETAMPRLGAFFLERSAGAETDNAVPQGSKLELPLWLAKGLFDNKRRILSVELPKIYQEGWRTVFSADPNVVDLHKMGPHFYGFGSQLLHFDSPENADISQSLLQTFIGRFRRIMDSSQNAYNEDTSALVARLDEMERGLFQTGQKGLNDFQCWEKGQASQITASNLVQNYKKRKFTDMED
# B2: Transmembrane protein 43 (Homo sapiens), Q9BTV4 (parent)
# chain: MAANYSSTSTRREHVKVKTSSQPGFLERLSETSGGMFVGLMAFLLSFYLIFTNEGRALKTATSLAEGLSLVVSPDSIHSVAPENEGRLVHIIGALRTSKLLSDPNYGVHLPAVKLRRHVEMYQWVETEESREYTEDGQVKKETRYSYNTEWRSEIINSKNFDREIGHKNPSAMAVESFMATAPFVQIGRFFLSSGLIDKVDNFKSLSLSKLEDPHVDIIRRGDFFYHSENPKYPEVGDLRVSFSYAGLSGDDPDLGPAHVVTVIARQRGDQLVPFSTKSGDTLLLLHHGDFSAEEVFHRELRSNSMKTWGLRAAGWMAMFMGLNLMTRILYTLVDWFPVFRDLVNIGLKAFAFCVATSLTLLTVAAGWLFYRPLWALLIAGLALVPILVARTRVPAKKLE
# partner: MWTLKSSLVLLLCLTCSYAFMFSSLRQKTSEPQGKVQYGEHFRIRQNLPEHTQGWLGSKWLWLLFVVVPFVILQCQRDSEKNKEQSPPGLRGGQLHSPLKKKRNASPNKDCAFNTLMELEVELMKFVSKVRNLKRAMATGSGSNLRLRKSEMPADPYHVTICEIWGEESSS
# B3: Transmembrane protein 43 (Homo sapiens), Q9BTV4 (parent)
# chain: B2 chain
# Variants of: B1
# Settings: with psf3_human GINS3, Q9BRX5
row,effect of a mutation on the interaction,Variant
1,disrupting interaction strength,MSAETPITLNIDPQDLQVQTFTVEKLLEPLIIQVTTLVNCPQNPSSRKKGRSKRASVLLASVEEATWNLLDKGEKIAQEATVLKDELTASLEEDRKESEALKVSAERFTDDPCFLPKREAVVQAARALLAAVTRLLILADMIDVMCLLQHVSAFQRTFESLKNVANKSDLQKTYQKLGKELENLDYLAFKRQQDLKSPNQRDEIAGARASLKENSPLLHSICSACLEHSDVASLKASKDTVCEEIQNALNVISNASQGIQNMTTPPEPQAATLGSALDELENLIVLNPLTVTEEEIRPSLEKRLEAIISGAALLADSSCTRDLHRERIIAECNAIRQALQDLLSEYMNNAGKKERSNTLNIALDNMCKKTRDLRRQLRKAIIDHVSDSFLDTTVPLLVLIEAAKNGREKEIKEYAAIFHEHTSRLVEVANLACSMSTNEDGIKIVKIAANHLETLCPQIINAALALAARPKSQAVKNTMEMYKRTWENHIHVLTEAVDDITSIDDFLAVSGMFLFF [V94D]

# Variants of: B2
# Settings: with FAM209A
row,Variant,effect of a mutation on the interaction
1,MAANYSSTSTRREHVKVKTSSQPGFLEWLSETSGGMFVGLMAFLLSFYLIFTNEGRALKTATSLAEGLSLVVSPDSIHSVAPENEGRLVHIIGALRTSKLLSDPNYGVHLPAVKLRRHVEMYQWVETEESREYTEDGQVKKETRYSYNTEWRSEIINSKNFDREIGHKNPSAMAVESFMATAPFVQIGRFFLSSGLIDKVDNFKSLSLSKLEDPHVDIIRRGDFFYHSENPKYPEVGDLRVSFSYAGLSGDDPDLGPAHVVTVIARQRGDQLVPFSTKSGDTLLLLHHGDFSAEEVFHRELRSNSMKTWGLRAAGWMAMFMGLNLMTRILYTLVDWFPVFRDLVNIGLKAFAFCVATSLTLLTVAAGWLFYRPLWALLIAGLALVPILVARTRVPAKKLE [R28W],with no effect
2,MAANYSSTSTRREHVKVKTSSQPGFLERLSETSGGMFVGLMAFLLSFYLIFTNEGRALKTATSLAEGLSLVVSPDSIHSVAPENKGRLVHIIGALRTSKLLSDPNYGVHLPAVKLRRHVEMYQWVETEESREYTEDGQVKKETRYSYNTEWRSEIINSKNFDREIGHKNPSAMAVESFMATAPFVQIGRFFLSSGLIDKVDNFKSLSLSKLEDPHVDIIRRGDFFYHSENPKYPEVGDLRVSFSYAGLSGDDPDLGPAHVVTVIARQRGDQLVPFSTKSGDTLLLLHHGDFSAEEVFHRELRSNSMKTWGLRAAGWMAMFMGLNLMTRILYTLVDWFPVFRDLVNIGLKAFAFCVATSLTLLTVAAGWLFYRPLWALLIAGLALVPILVARTRVPAKKLE [E85K],disrupting interaction strength
3,MAANYSSTSTRREHVKVKTSSQPGFLERLSETSGGMFVGLMAFLLSFYLIFTNEGRALKTATSLAEGLSLVVSPDSIHSVAPENEGRLVHVIGALRTSKLLSDPNYGVHLPAVKLRRHVEMYQWVETEESREYTEDGQVKKETRYSYNTEWRSEIINSKNFDREIGHKNPSAMAVESFMATAPFVQIGRFFLSSGLIDKVDNFKSLSLSKLEDPHVDIIRRGDFFYHSENPKYPEVGDLRVSFSYAGLSGDDPDLGPAHVVTVIARQRGDQLVPFSTKSGDTLLLLHHGDFSAEEVFHRELRSNSMKTWGLRAAGWMAMFMGLNLMTRILYTLVDWFPVFRDLVNIGLKAFAFCVATSLTLLTVAAGWLFYRPLWALLIAGLALVPILVARTRVPAKKLE [I91V],with no effect

# The remaining lines, values ahead:
row,effect of a mutation on the interaction,Variant
1,with no effect,MAANYSSTSTRREHVKVKTSSQPGFLERLSETSGGMFVGLMAFLLSFYLIFTNEGRALKTATSLAEGLSLVVSPDSIHSVAPENEGRLVHIIGALRTSKLLSDPNYGVHLPAVKLRRHVEMYQWVETEESREYTEDGQVKKETRYSYNTEWRSEIINSKNFDREIGHKNPSAMAVESFMATAPFVQIGRFFLSSGLIDKVDNFKSLSLSKLEDPHVDIIRRGDFFYHSENPKYPEVGDLRVSFSYAGLSGDDPDLGPAHVVTVIARQRGDQLVPFSTKSGDTLLLLHHGDFSAEEVFHRELRSNSMKTWGLRAAGWMAMFMGLNLMTRILYTLVDWFPVFRDLVNIGLKAFAFCVATSLTLLTVAAGWLFHRPLWALLIAGLALVPILVARTRVPAKKLE [Y371H]
2,disrupting interaction strength,MAANYSSTSTRREHVKVKTSSQPGFLERLSETSGGMFVGLMAFLLSFYLIFTNEGRALKTATSLAEGLSLVVSPDSIHSVAPENEGRLVHIIGALRTSKLLSDPNYGVHLPAVKLRRHVEMYQWVETEESREYTEDGQVKKKTRYSYNTEWRSEIINSKNFDREIGHKNPSAMAVESFMATAPFVQIGRFFLSSGLIDKVDNFKSLSLSKLEDPHVDIIRRGDFFYHSENPKYPEVGDLRVSFSYAGLSGDDPDLGPAHVVTVIARQRGDQLVPFSTKSGDTLLLLHHGDFSAEEVFHRELRSNSMKTWGLRAAGWMAMFMGLNLMTRILYTLVDWFPVFRDLVNIGLKAFAFCVATSLTLLTVAAGWLFYRPLWALLIAGLALVPILVARTRVPAKKLE [E142K]

# Variants of: B3
# Settings: with ubp25_human USP25, Q9UHP3
# Chain of ubp25_human USP25, Q9UHP3 (Q9UHP3 whole entry): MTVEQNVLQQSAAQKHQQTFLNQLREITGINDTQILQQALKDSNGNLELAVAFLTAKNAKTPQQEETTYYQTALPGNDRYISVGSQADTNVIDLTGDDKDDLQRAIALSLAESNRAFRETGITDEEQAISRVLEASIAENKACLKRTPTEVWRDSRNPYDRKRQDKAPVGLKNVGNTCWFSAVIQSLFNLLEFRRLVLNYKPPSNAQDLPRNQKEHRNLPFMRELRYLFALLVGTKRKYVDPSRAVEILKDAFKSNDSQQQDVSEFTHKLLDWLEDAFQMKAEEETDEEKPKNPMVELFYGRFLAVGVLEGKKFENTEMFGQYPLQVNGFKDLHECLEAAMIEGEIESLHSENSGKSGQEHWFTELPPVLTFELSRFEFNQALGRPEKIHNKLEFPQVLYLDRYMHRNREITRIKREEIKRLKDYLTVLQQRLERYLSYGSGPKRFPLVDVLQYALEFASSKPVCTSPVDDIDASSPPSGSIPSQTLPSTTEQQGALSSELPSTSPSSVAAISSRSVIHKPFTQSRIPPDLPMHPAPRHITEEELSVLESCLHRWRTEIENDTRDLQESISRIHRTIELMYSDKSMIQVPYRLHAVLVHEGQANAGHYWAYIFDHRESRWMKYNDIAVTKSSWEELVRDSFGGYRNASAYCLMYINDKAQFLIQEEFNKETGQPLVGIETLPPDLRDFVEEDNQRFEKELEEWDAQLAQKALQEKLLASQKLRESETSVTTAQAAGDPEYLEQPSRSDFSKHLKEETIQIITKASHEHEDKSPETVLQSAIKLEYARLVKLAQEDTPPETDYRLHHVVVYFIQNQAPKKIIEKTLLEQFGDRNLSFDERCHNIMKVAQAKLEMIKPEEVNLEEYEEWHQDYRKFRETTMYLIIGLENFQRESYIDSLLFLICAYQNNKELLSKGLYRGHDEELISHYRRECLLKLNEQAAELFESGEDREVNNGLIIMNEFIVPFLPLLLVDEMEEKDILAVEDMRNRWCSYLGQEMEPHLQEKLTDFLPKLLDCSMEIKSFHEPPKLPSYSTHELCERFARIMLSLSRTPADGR
row,effect of a mutation on the interaction,Variant
1,with no effect,MAANYSSTSTRREHVKVKTSSQPGFLERLSETSGGMFVGLMAFLLSFYLIFTNEGRALKTATSLAEGLSLVVSPDSIHSVAPENEGRLVHIIGALRTSKLLSDPNYGVHLPAVKLRRHVEMYQWVETEESREYTEDGQVKKETRYSYNTEWRSEIINSKNFDREIGHKNPSAMAVESFMATAPFVQIGRFFLSSGLIDKVDNFKSLSLSKLEDPHVDIIRRGDFFYHSENPKYPEVGDLRVSFSYAGLSGDDPDLGPAHVVTVIARQRGDQLVPFSTKSGDTLLLLHHGDFSAEEVFHRELRSNSMKTWGLRAAGWMAMFMGLNLMTRILYTLVDWFPVFRDLVNIGLKAFAFCVATSLTLLTVAAGWLFHRPLWALLIAGLALVPILVARTRVPAKKLE [Y371H]

# Variants of: B3
# Settings: with ar13b_human ARL13B
row,effect of a mutation on the interaction,Variant
1,with no effect,MAANYSSTSTRREHVKVKTSSQPGFLERLSETSGGMFVGLMAFLLSFYLIFTNEGRALKTATSLAEGLSLVVSPDSIHSVAPENEGRLVHIIGALRTSKLLSDPNYGVHLPAVKLRRHVEMYQWVETEESREYTEDGQVKKETRYSYNTEWRSEIINSKNFDREIGHKNPSAMAVESFMATAPFVQIGRFFLSSGLIDKVDNFKSLSLSKLEDPHVDIIRRGDFFYHSENPKYPEVGDLRVSFSYAGLSGDDPDLGPAHVVTVIARQRGDQLVPFSTKSGDTLLLLHHGDFSAEEVFHRELRSNSMKTWGLRAAGWMAMFMGLNLMTRILYTLVDWFPVFRDLVNIGLKAFAFCVATSLTLLTVAAGWLFHRPLWALLIAGLALVPILVARTRVPAKKLE [Y371H]

# Variants of: B3
# Settings: with FGA
row,effect of a mutation on the interaction,Variant
1,with no effect,MAANYSSTSTRREHVKVKTSSQPGFLERLSETSGGMFVGLMAFLLSFYLIFTNEGRALKTATSLAEGLSLVVSPDSIHSVAPENEGRLVHIIGALRTSKLLSDPNYGVHLPAVKLRRHVEMYQWVETEESREYTEDGQVKKETRYSYNTEWRSEIINSKNFDREIGHKNPSAMAVESFMATAPFVQIGRFFLSSGLIDKVDNFKSLSLSKLEDPHVDIIRRGDFFYHSENPKYPEVGDLRVSFSYAGLSGDDPDLGPAHVVTVIARQRGDQLVPFSTKSGDTLLLLHHGDFSAEEVFHRELRSNSMKTWGLRAAGWMAMFMGLNLMTRILYTLVDWFPVFRDLVNIGLKAFAFCVATSLTLLTVAAGWLFHRPLWALLIAGLALVPILVARTRVPAKKLE [Y371H]

# Variants of: B3
# Settings: with PCYT1B
row,effect of a mutation on the interaction,Variant
1,with no effect,MAANYSSTSTRREHVKVKTSSQPGFLERLSETSGGMFVGLMAFLLSFYLIFTNEGRALKTATSLAEGLSLVVSPDSIHSVAPENEGRLVHIIGALRTSKLLSDPNYGVHLPAVKLRRHVEMYQWVETEESREYTEDGQVKKETRYSYNTEWRSEIINSKNFDREIGHKNPSAMAVESFMATAPFVQIGRFFLSSGLIDKVDNFKSLSLSKLEDPHVDIIRRGDFFYHSENPKYPEVGDLRVSFSYAGLSGDDPDLGPAHVVTVIARQRGDQLVPFSTKSGDTLLLLHHGDFSAEEVFHRELRSNSMKTWGLRAAGWMAMFMGLNLMTRILYTLVDWFPVFRDLVNIGLKAFAFCVATSLTLLTVAAGWLFHRPLWALLIAGLALVPILVARTRVPAKKLE [Y371H]

# Variants of: B3
# Settings: with zch12_human ZCCHC12, Q6PEW1
# Chain of zch12_human ZCCHC12, Q6PEW1 (Q6PEW1 whole entry): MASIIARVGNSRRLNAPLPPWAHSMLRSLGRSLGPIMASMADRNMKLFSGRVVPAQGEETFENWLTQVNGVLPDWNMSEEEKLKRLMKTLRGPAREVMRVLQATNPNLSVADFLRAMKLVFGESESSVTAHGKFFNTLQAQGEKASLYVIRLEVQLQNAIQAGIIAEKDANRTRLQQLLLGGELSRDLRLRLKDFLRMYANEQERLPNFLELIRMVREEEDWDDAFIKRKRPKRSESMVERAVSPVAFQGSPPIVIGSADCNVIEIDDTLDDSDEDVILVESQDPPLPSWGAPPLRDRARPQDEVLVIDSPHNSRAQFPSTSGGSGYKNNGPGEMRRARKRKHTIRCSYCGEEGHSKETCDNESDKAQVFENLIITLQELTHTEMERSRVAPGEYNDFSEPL
row,effect of a mutation on the interaction,Variant
1,with no effect,MAANYSSTSTRREHVKVKTSSQPGFLERLSETSGGMFVGLMAFLLSFYLIFTNEGRALKTATSLAEGLSLVVSPDSIHSVAPENEGRLVHIIGALRTSKLLSDPNYGVHLPAVKLRRHVEMYQWVETEESREYTEDGQVKKETRYSYNTEWRSEIINSKNFDREIGHKNPSAMAVESFMATAPFVQIGRFFLSSGLIDKVDNFKSLSLSKLEDPHVDIIRRGDFFYHSENPKYPEVGDLRVSFSYAGLSGDDPDLGPAHVVTVIARQRGDQLVPFSTKSGDTLLLLHHGDFSAEEVFHRELRSNSMKTWGLRAAGWMAMFMGLNLMTRILYTLVDWFPVFRDLVNIGLKAFAFCVATSLTLLTVAAGWLFHRPLWALLIAGLALVPILVARTRVPAKKLE [Y371H]
